{"source": "paper PMC7263513", "about": "(bioRxiv, 2020)"}
{"target": "SARS-CoV-2 receptor binding domain (RBD) (Severe acute respiratory syndrome …, UniProt P0DTC2)", "assay": "cell-based or functional assay", "units": {"IC50 of neutralisation of SARS-CoV-2 pseudovirus (293T_(ACE2) cells)": "µg/mL"}}
{"binder": "C114 (antibody, V domains shown) VH: QVQLVESGGGLIQPGGSLKLSCVVSGFTVSKNYISWVRQAPGKGLEWVSVIFAGGSTFYADSVKGRFAISRDNSNNTLFLQMNSLRVEDTAIYYCARGDGELFFDQWGQGTLVTVSS VL: QSVLTQPPSVSGAPGQRVTISCTGTSSNIGAGYDVHWYQQLPGRAPKVLISGNNIRPSEVPDRFSGSRSGTSASLAITSLQPEDEAQYYCQSYDSSLYAVFGGGTKLTVL", "IC50 of neutralisation of SARS-CoV-2 pseudovirus (293T_(ACE2) cells)": "> 1"}
{"binder": "C115 (antibody, V domains shown) VH: QVQLVESGGGLIKPGRSLRLSCTASGFTFGDYAMTWFRQAPGKGLEWVGFIRSKAYGGTTGYAASVKYRFTISRDDSKSIAYLQMDSLKTEDTAVYYCTRWDGWSQHDYWGQGTLVTVSS VL: DIVMTQSPLSLSVTPGEPASISCRSSQSLLHSNGNNYFDWYLQKPGQSPQLLIYLGSNRASGVPDRFSGSGSGTDFTLKISRVEAEDVGVYYCMQVLQIPYTFGQGTKLEIK", "IC50 of neutralisation of SARS-CoV-2 pseudovirus (293T_(ACE2) cells)": 0.198}
{"binder": "C116 (antibody, V domains shown) VH: QVQLVESGGGVVQPGRSLRLSCAASGFTYSTYAMHWVRQAPGKGLEWVAFISYDGSNKYYADSVKGRFTISRDNSKNTLYLQMNSLRAEDTAVYYCARDFYHNWFDPWGQGTLVTVSS VL: NFMLTQPHSVSESPGKTVTISCTGSSGSIASNYVQWYQQRPGSAPTTVIYEDNQRPSGVPDRFSGSIDRSSNSASLTISGLKTEDEADYYCQSYDSGNHWVVFGGGTRLTVL", "IC50 of neutralisation of SARS-CoV-2 pseudovirus (293T_(ACE2) cells)": "> 1"}
{"binder": "C117 (antibody, V domains shown) VH: QVQLVESGGGVVQPGRSLRLSCAASGFTFSTYAMHWVRQAPGEGLEWVAVISYDGSNTYYADSVKGRFTISRDNSKNTLYLQMNSLRAEDTAVYYCARDPIWFGELLSPPFVHFDYWGQGTLVTVSS VL: QSVLTQPPSVSAAPGQKVTISCSGSSSNIGNNLVSWYQQLPGTAPKLLIYENNKRPSGIPDRFSGSKSGTSATLGITGLQTGDEADYYCGAWDSSLSAGGVYVFGTGTKVTVL", "IC50 of neutralisation of SARS-CoV-2 pseudovirus (293T_(ACE2) cells)": 0.348}
{"binder": "C118 (antibody, V domains shown) VH: QVQLVESGGGVVQPGRSLRLSCAASGFTFSNYAMHWVRQAPGKGLEWVAVISYDGSNKYYADSVKGRFTISRDNSKNTLYLQMNSLRAEDTAIYYCASGYTGYDYFVRGDYYGLDVWGQGTTVTVSS VL: QPVLTQSPSASASLGASVKLTCTLSSGHSSYAIAWHQQQPEKGPRYLMKLNTDGSHSKGDGIPDRFSGSSSGAERYLTISSLQSEDEADYYCQTWGTGILVFGGGTKLTVL", "IC50 of neutralisation of SARS-CoV-2 pseudovirus (293T_(ACE2) cells)": 0.104}
{"binder": "C119 (antibody, V domains shown) VH: QVQLVQSGAEVKKPGASVKVSCKASGYTFTSYYMHWVRQAPGQGLEWMGIINPSGGSTSYAQKLQGRVTMTRDTSTSTVYMELSSLRSEDTAVYYCARANHETTMDTYYYYYYMDVWGKGTTVTVSS VL: QSALTQPASVSGSPGQSITISCTGTSSDVGGYKYVSWYQRHPGKAPKLMIYDVSNRPSGVSNRFSGSKSGNTASLTISGLQAEDEADYYCSSYTSSSTSVVFGGGTQLTVL", "IC50 of neutralisation of SARS-CoV-2 pseudovirus (293T_(ACE2) cells)": 0.00912}
{"binder": "C120 (antibody, V domains shown) VH: EVQLVESGGGLIQPGGSLRLSCAASGFTVSSNYMTWVRQAPGKGLEWVSLIYPGGSTYYADSVKGRFTISRDNSKNTLYLQMNSLRAEDTAVYYCAREGMGMAAAGTWGQGTLVTVSS VL: AIRMTQSPSSLSASVGDTVTITCQASQDISKYLNWYQQKPGKAPKLLIYDASNLETGVPSRFSGSGSGTDFTFTISSLQPEDIATYYCQQYDNLPQTFGGGTKVEIK", "IC50 of neutralisation of SARS-CoV-2 pseudovirus (293T_(ACE2) cells)": 0.0133}
{"binder": "C121 (antibody, V domains shown) VH: not shown VL: QSALTQPASVSGSPGQSITISCTGTSSDVGSYNLVSWYQQHPGKAPKLMIYEGSKRPSGVSNRFSGSKSGNTASLTISGLQAEDEADYYCCSYAGSSTLVFGGGTKLTVL", "IC50 of neutralisation of SARS-CoV-2 pseudovirus (293T_(ACE2) cells)": 0.00673}
{"binder": "C122 (antibody, V domains shown) VH: EVQLVESGGGLIQPGGSLRLSCAASGLTVSSNYMSWVRQAPGKGLEWVSVLYSGGSSFYADSVKGRFTISRDNSKNTLYLQMNSLRAEDTAVYYCARESGDTTMAFDYWGQGTLVTVSS VL: DIQLTQSPSFLSASVGDRVTITCRASQGISSYLAWYQQKPGKAPKLLIYAASTLQSGVPSRFSGSGSGTEFTLTISSLQPEDFATYYCQQLNSDSYTFGQGTKLEIK", "IC50 of neutralisation of SARS-CoV-2 pseudovirus (293T_(ACE2) cells)": 0.0228}
{"binder": "C123 (antibody, V domains shown) VH: EVQLVESGGGLIQPGGSLRLSCAASGVTVSRNYMSWVRQAPGKGLEWVSVIYSGGSTYYADSVKGRFTISRDNSKNTLYLQMNSLRAEDTAVYYCARDLSAAFDIWGQGTMVTVSS VL: DIQLTQSPSFLSASVGDRVTITCRASQGISSYLAWYQQKPGKAPKLLIYAASTLQSGVPSRFSGSGSGTEFTLTISSLQPEDFATYYCQQLNSYPPAFGQGTRLEIK", "IC50 of neutralisation of SARS-CoV-2 pseudovirus (293T_(ACE2) cells)": 0.149}
{"binder": "C124 (antibody, V domains shown) VH: EVQLVESGGGLVQPGGSLRLSCAASGFTFSGYSMNWVRQAPGKGPEWVSYISRSSSTIYYADSVKGRFTISRDNAKNSLYLQMNSLRDEDTAVYYCAREGARVGATYDTYYFDYWGQGTLVTVSS VL: EIVLTQSPATLSLSPGERATLSCRASQSFSSYLAWYQQKPGQAPRLLIYDASNRATGIPARFSGSGSGTDFTLTISSLEPEDFAVYYCQQRNNWPPEWTFGQGTKVEIK", "IC50 of neutralisation of SARS-CoV-2 pseudovirus (293T_(ACE2) cells)": 0.342}
{"binder": "C126 (antibody, V domains shown) VH: QVQLQESGPGLVKPSETLSLSCAVSGGSIGSYFWSWIRQPPGKGLEWIGYLHYSGSTNYNPSLKSRVTISVDTSKNQFSLKLSSVTAADTAVYYCARLQWLRGAFDIWGQGTMVTVSS VL: NFMLTQPHSVSESPGKTVTISCTGSSGSIASNYVQWYQQRPGSAPTTVINEDNQRPSGVPDRFSGSIDSSSNSASLTISGLKTEDEADYYCQSYDSSNLVFGGGTKLTVL", "IC50 of neutralisation of SARS-CoV-2 pseudovirus (293T_(ACE2) cells)": "> 1"}
{"binder": "C128 (antibody, V domains shown) VH: EVQLLESGGGLVQPGGSLRLSCAASGFTFSTYAMSWVRQAPGKGLEWVSTITGSGRDTYYADSVKGRFTISRDNSKNTLFLQLNSLRAEDAAVYSCANHPLASGDDYYHYYMDVWGKGTTVTVSS VL: EIVLTQSPGTLSLSPGERATLSCRASQSVNSRQLAWYQQKPGQAPRLLIYGASSRATGIPERFSGSGSGTDFTLTISRLESEDFAVYHCQQYGSSRALTFGGGTKVEIK", "IC50 of neutralisation of SARS-CoV-2 pseudovirus (293T_(ACE2) cells)": 0.101}
{"binder": "C130 (antibody, V domains shown) VH: QVQLVQSGAEVKKPGASVKVSCKASGYTFTNYYMHWVRQAPGQGLEWMGIINPSGGSTGYAQKFQGRVTMTRDTSTSTVYMELSSLRSEDTAVYYCARSRPTPDWYFDLWGRGTLVTVSS VL: SYELTQPPSVSVAPGKTARITCGGNNIGSKSVHWYQQKPGQAPVLVIYYDSDRPSGIPERFSGSNSGNTATLTISRVEAGDEADYYCQVWDSSSDHPGVVFGGGTKLTVL", "IC50 of neutralisation of SARS-CoV-2 pseudovirus (293T_(ACE2) cells)": "> 1"}
{"binder": "C131 (antibody, V domains shown) VH: QVQLVQSGSEVKKPGSSVKVSCKASGGTFSSYAFSWVRQAPGQGLEWMGRIIPILALANYAQKFQGRVTITADKSTSTAYMELSSLRSEDTAVYYCARVNQAVTTPFSMDVWGQGTTVTVSS VL: not shown", "IC50 of neutralisation of SARS-CoV-2 pseudovirus (293T_(ACE2) cells)": 0.0305}
{"binder": "C132 (antibody, V domains shown) VH: QVQLQESGPGLVKPSGTLSLTCAVSGGSISSNNWWSCVRQPPGKGLEWIGEIYHSGSTNYNPSLKSRVTISVDKSKNQFSLKLSSVTAADTAVYYCARGGDTAMGPEYFDYWGQGTLVTVSS VL: QSALTQPASVSGSPGQSITISCTGTSSDVGGYNYVSWYQQHPGKAPKLMIYDVSNRPSGVSNRFSGSKSGNTASLTISGLQAEDEADYYCSSYTSSSTLLFGGGTKLTVL", "IC50 of neutralisation of SARS-CoV-2 pseudovirus (293T_(ACE2) cells)": 0.709}
{"binder": "C133 (antibody, V domains shown) VH: QVQLVESGGGVVQPGRSLRLSCAASGFTFSSYAMHWVRQAPGKGLEWVAVILYDGSNKYYADSVKGRFTISRDNSKNTLYLQMNSLRAEDTAVYYCARDSDVDTSMVTWFDYWGQGTLVTVSS VL: not shown", "IC50 of neutralisation of SARS-CoV-2 pseudovirus (293T_(ACE2) cells)": "> 1"}
{"binder": "C134 (antibody, V domains shown) VH: EVQLLESGGGLVQPGGSLRLSCAASGFTFSNYAMSWVRQAPGKGLEWVSAISGSDGSTYYAGSVKGRFTISRDNSKNTLYLQMNSLRAEDTAVYYCAKDPLITGPTYQYFHYWGQGTLVTVSS VL: SYELTQPPSVSVAPGKTARITCGGNNIGSKSVHWYQQKPGQAPVLVIYYDSDRPSGIPERFSGSNSGNTATLTISRVEAGDEAEYHCQVWDSSSDRPGVVFGGGTKLTVL", "IC50 of neutralisation of SARS-CoV-2 pseudovirus (293T_(ACE2) cells)": "> 1"}
{"binder": "C138 (antibody, V domains shown) VH: EVQLVESGGGLVQPGGSLRLSCAASGFTFSTYWMSWVRQPPGKGLEWVANIKQDGSEKYYVDSVKGRFTISRDNAKNSLYLQMNSLRADDTAVYYCAGGTWLRSSFDYWGQGTLVTVSS VL: NFMLTQPHSVSESPGKTVTISCTGSSGSIASNYVQWYQQRPGSAPTTVIYEDNQRPSGVPDRFSGSIDSSSNSASLTISGLKTEDEADYYCQSYDSSNWVFGGGTKLTVL", "IC50 of neutralisation of SARS-CoV-2 pseudovirus (293T_(ACE2) cells)": "> 1"}
{"binder": "C139 (antibody, V domains shown) VH: EVQLVESGGGVVQPGRSLRLSCAASGFTFSSYAMHWVRQAPGKGLEWVAVISYDGSNKYSADSVKGRFTISRDNSKNTLYLQMNSLRAEDTAVYYCAKGGAYSYYYYMDVWGKGTTVTVSS VL: not shown", "IC50 of neutralisation of SARS-CoV-2 pseudovirus (293T_(ACE2) cells)": "> 1"}
{"binder": "C140 (antibody, V domains shown) VH: EVQLVESGGGLVQPGGSLRLSCAASGVTVSSNYMSWVRQAPGKGLEWVSLIYSGGSTFYADSVKGRFTISRDNSENTLYLQMNTLRAEDTAVYYCARDLYYYGMDVWGQGTTVTVSS VL: DIQLTQSPSFLSASVGDRVTITCRASQGISSYLAWYQQKPGKAPKLLIYAASTLQSGVPSRFSGSGSGTEFTLTISSLQPEDFATYYCQQLNSYSYTFGQGTKLEIK", "IC50 of neutralisation of SARS-CoV-2 pseudovirus (293T_(ACE2) cells)": 0.0239}
{"binder": "C141 (antibody, V domains shown) VH: not shown VL: NFMLTQPHSVSESPGKTVTISCTGSSGSIASNYVQWYQQRPGSAPTTVIYEDNQRPSGVPDRFSGSIDSSSNSASLTISGLKTEDEADYYCQSYDSSNWVFGGGTKLTVL", "IC50 of neutralisation of SARS-CoV-2 pseudovirus (293T_(ACE2) cells)": "> 1"}
